Experimental data reported in patent US20250228957A1 (BIOHAVEN THERAPEUTICS, published 2025).

Legend:
[1] = target: Deglycosylated IgA (dg-IgA) (human, UniProt P01876-1 1-353, Human serum IgA was treated with PNGase, neuraminidase, and galactosidase; conjugated to Alexa Fluor 594 in the cell uptake assays); test: cell-based or functional assay
Total IgA = test: cell-based or functional assay

Sequence of Deglycosylated IgA (dg-IgA) (P01876 other isoform, or with tags, fused parts or gaps): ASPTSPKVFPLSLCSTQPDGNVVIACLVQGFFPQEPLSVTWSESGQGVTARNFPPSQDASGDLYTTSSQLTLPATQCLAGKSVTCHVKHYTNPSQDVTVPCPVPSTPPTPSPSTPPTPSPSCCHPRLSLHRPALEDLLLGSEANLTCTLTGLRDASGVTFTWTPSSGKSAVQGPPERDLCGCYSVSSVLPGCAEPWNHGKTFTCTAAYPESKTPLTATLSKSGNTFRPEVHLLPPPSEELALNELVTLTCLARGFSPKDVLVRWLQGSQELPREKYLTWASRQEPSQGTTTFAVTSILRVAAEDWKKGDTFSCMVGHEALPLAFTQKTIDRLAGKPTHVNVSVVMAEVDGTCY

B1: ABT030 (chimeric LALA PA mutant Km55 antibody) (antibody, human IgG1, kappa, L234A L235A, V domains shown)
VH: ELQLQESGPGLVKPSQSLSLTCSVTGYSIRSNYWGWIRKFPGNKMEWMGYITYSGGTYYNPSLKSRISITRDTSKNQFFLQLTSVTTEDTATYYCTRWGDWYFDFWGPGTKVTVSP
VL: DVVLTQTPPPLSVAIGQSVSISCKSSQSLVHTDGKTYLHWLLQSPGQSPKLLIYQVSNLGSGVPDRFSGTGSQKDFTLKISRVEAEDLGVYYCVQATHFPLTFGIGTKLELQR
EC50, Assay #1, uptake of A594-labelled cargo by HEK293 (+ASGPR) cells [1]: 0.353 nM | EC50, Assay #3, uptake of A594-labelled cargo by HEK293 (+ASGPR) cells [1]: 3.53 nM | S/N, Assay #1, uptake of A594-labelled cargo by HEK293 (+ASGPR) cells [1]: 4.3 signal-to-noise ratio | S/N, Assay #2, uptake of A594-labelled cargo by HEK293 (+ASGPR) cells [1]: 3.7 signal-to-noise ratio | S/N, Assay #3, uptake of A594-labelled cargo by HEK293 (+ASGPR) cells [1]: 7.1 signal-to-noise ratio | EC50, Assay #1, uptake of A594-labelled cargo by HEK293 (+ASGPR) cells (Total IgA): 7.15 nM
